Data: patent US20200157194A1 (Regeneron, published 2020)

T1: recombinant human GREM1 (hGREM1-His; C-terminal 10His tagged, R&D, #5190-GR) (human, UniProt O60565 25-184, limits assumed)
T1 sequence: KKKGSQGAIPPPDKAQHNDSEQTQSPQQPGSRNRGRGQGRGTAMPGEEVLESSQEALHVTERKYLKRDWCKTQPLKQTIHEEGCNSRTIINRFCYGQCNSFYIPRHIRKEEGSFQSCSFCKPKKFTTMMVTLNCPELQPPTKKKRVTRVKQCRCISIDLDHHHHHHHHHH

T2: human GREM1 (hGREM1-His; SEQ ID NO: 595) (human, UniProt O60565 25-184)
T2 construct: also called biotin-hGREM1-His; recombinant human GREM1 protein
T2 sequence: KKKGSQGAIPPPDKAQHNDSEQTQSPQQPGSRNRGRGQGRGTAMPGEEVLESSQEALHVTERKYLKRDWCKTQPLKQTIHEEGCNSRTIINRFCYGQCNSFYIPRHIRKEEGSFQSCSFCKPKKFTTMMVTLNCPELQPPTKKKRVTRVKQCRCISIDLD


Legend:
[1] = target: T1, recombinant human GREM1 (hGREM1-His; …); assay: cell-based or functional assay
[2] = target: T1, recombinant human GREM1 (hGREM1-His; …); assay: cell-based or functional assay; remark: listed apart in the source
[3] = target: T1, recombinant human GREM1 (hGREM1-His; …); assay: BLI Octet, mAb captured, 100 nM GREM1;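 also: octet Red96 biolayer interferometry at 25 °C in pH 7.4 HEPES saline buffer, antibodies held on anti-human IgG Fc capture biosensors, then exposed to GREM1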
Procedure: (§1) Binding measurements were conducted using an Octet Red96 label-free biomolecular interaction instrument (ForteBio). All experiments were performed at 25° C. using plate agitation at 1000 rpm. Solutions were made in an aqueous buffer containing 10 mM HEPES, 150 mM NaCl, 3 mM EDTA 0.05% P20, 0.1 mg/mL BSA and adjusted to pH of 7.4 (HBST buffer).
(§2) Anti-Human IgG Fc Capture biosensors (ForteBio) were separately loaded with 50 μg/mL solutions of 24 different anti-GREM1 antibodies for 60 seconds. Following a 30 second wash, duplicate biosensors for each antibody were submerged into wells containing either 100 nM GREM1 solutions or 100 nM GREM1 solutions containing 5 μM of heparin, measuring association for 300 seconds.

[4] = target: T1, recombinant human GREM1 (hGREM1-His; …); assay: BLI Octet, mAb captured, 100 nM GREM1 + 5 uM heparin;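 also: octet Red96 biolayer interferometry at 25 °C, antibodies captured on anti-human IgG Fc biosensors, pH 7.4 HEPES buffer with 0.1 mg/mL BSA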
Procedure: as §1, §2

[5] = target: T2, human GREM1 (hGREM1-His; SEQ ID NO: 595); assay: SPR, Biacore T200, 25 C, mAb captured, hGREM1-His injected;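 also: Heparin-supplemented HBS-EP+ used as running buffer, association and dissociation phases followed, Kd computed as koff divided by kon and half-life derived from koff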
Procedure: Kinetic experiments were carried out using HBS-EP+heparin [10 mM HEPES, 150 mM NaCl, 3 mM EDTA, 0.05% (v/v) surfactant P20, 10 μg/ml heparin sodium salt, pH 7.4] as both the running buffer and the sample buffer. […] Antigen-antibody association was monitored for 150 seconds while dissociation in buffer was monitored for 420 seconds. Kinetic analysis was performed using Scrubber software version 2.0a or Biacore T200 evaluation software v1.0 to determine kₐ and kd values. KD and t_{1/2} were then calculated from the experimentally determined kₐ and kd values as KD=kd/kₐ and t_{1/2}=In(2)/kd.

[6] = target: T2, human GREM1 (hGREM1-His; SEQ ID NO: 595); assay: SPR, Biacore T200, 37 C, mAb captured, hGREM1-His injected;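 also: HBS-EP running buffer containing heparin, association and dissociation phases tracked, KD computed as koff over kon and half-life derived from koff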
[7] = target: T1, recombinant human GREM1 (hGREM1-His; …); assay: BLI Octet, mAb captured, 100 nM GREM1 without vs with 5 uM heparin;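 also: octet Red96 biolayer interferometry at 25 °C, antibodies captured on anti-human IgG Fc biosensors, association of GREM1 measured with versus without heparin in HEPES-buffered saline, pH 7.4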
Procedure: as §1, §2

[8] = target: T2, human GREM1 (hGREM1-His; SEQ ID NO: 595); assay: competition ELISA, biotin-hGREM1-His (100 pM) binding to coated hBMP4
Procedure: Data were analyzed using a sigmoidal dose-response model within Prism™ software. […] The absorbance values of the wells containing the highest concentration for each antibody were used to determine the percent maximum blocking.

| IC50 [M], inhibition of hGREM1-His, W-20-17/BRE-luc luciferase (100 pM hBMP4, 10 nM hGREM1-His) [1] [M] | hGREM1-His Inhibition IC50, M; W-20-17 cell differentiation assay (alkaline phosphatase) [2] [nM] | Binding Signal with 30 sec Association [3] [nm] | Binding Signal with 300 sec Association [3] [nm] | Binding Signal with 30 sec Association [4] [nm] | Binding Signal with 300 sec Association [4] [nm] | Kd [5] [nM] | koff [5] [s⁻¹] | kon [5] [M⁻¹ s⁻¹] | t1/2 [5] [min] | Kd [6] [nM] | koff [6] [s⁻¹] | kon [6] [M⁻¹ s⁻¹] | t1/2 [6] [min] | Reduction in Signal from Heparin at 30 sec [7] [nm] | Reduction in Signal from Heparin at 300 sec [7] [nm] | % blocked at maximum Ab tested (20 nM) [8] [%] | IC50 [8] [nM] | Binder |
| --- | --- | --- | --- | --- | --- | --- | --- | --- | --- | --- | --- | --- | --- | --- | --- | --- | --- | --- |
| 1.2e-09 | 13 | 0.23 | 0.49 | 0.07 | 0.42 | 5.52 | 0.000502 | 91000 | 23 | 11.1 | 0.0014 | 126000 | 8 | 0.16 | 0.07 | 93 | 0.052 | H4H2926N (antibody, human IgG4, V domains shown, H4H prefix = human IgG4 Fc) VH: EVQLVESGGGLVQTGRSLRLSCAASGFTFDDYAMNWVRQAPGKGLEWVSGISWNSGNIGYADSVKGRFTISRDNAKNSLYLQMNSLRAEDTALYYCVKYIGQQLVQDYFDYWGQGTLVTVSS VL: DIQMTQSPSSLSASVGDRVTITCQASQDITNYLNWYQQRPGKAPKLLIYDAFNLERGVPSRFSGSGYGTYFTFTISSLQPEDIAIYYCQQYDNLPLTFGGGTKVEIE |
| 5.8e-10 | 1.9 | 0.15 | 0.5 | 0.22 | 0.54 | 0.778 | 0.000132 | 170000 | 88 | 1.23 | 0.000215 | 175000 | 54 | -0.07 | -0.04 | 94 | 0.036 | H4H2895N (antibody, human IgG4, V domains shown, H4H prefix = human IgG4 Fc) VH: EVQLVESGGGLVQPGGSLRLSCAASGFTVSSNYMSWVRQAPGKGLEWVSVIYSGGNTYYADSVKGRFTISRHNSKNTLYLQMNSLRAEDTAVYYCARDLGIKSDYWGQGTLVTVSS VL: EIVLTQSPDFQSVTPKEKVTITCRASQSIGTTLHWYQQKPDQSPKLLIKYVSQSLSGVPSRFSGSGSGTDFTLTINSLEAEDAATYYCHQSSSLPWTFGQGTKVEIK |
| 4.5e-10 | 18 | 0.2 | 0.68 | 0.01 | 0.26 | 148 | 0.00041 | 2770 | 28 | 28.8 | 0.00202 | 70300 | 6 | 0.19 | 0.42 | 73 | 0.042 | H4H2897N (antibody, human IgG4, V domains shown, H4H prefix = human IgG4 Fc) VH: QVQLVESGGGVVQPGRSLRLSCAASGFTFTNYGMHWVRQAPGKGLEWVAAISYDGTNKYYADSVKGRFTISRDDSKNTLCLQMNSLRAEDTAVYYCAKEGTGEGFSFDYWGQGTLVTVSS VL: not shown |
| 5.4e-10 | 3.9 | 0.33 | 0.45 | 0.05 | 0.43 | 2.99 | 0.000125 | 42000 | 92 | 2.63 | 0.000245 | 93000 | 47 | 0.28 | 0.02 | 95 | < 0.025 | H4H6236P (antibody, human IgG4, V domains shown, H4H prefix = human IgG4 Fc) VH: QVQLVQSGAEVKKPGASVKVSCKVSGYTLTELSMHWVRQAPGKGLEWMGGFDPEDGETIYAQKFQGRVTMTEDTSTETAYMELSSLRSEDTAVYYCATDDYDILTDYPYNMDVWGQGTTVTVSS VL: not shown |
